In the DeepSol protein solubility set:

Assay: soluble on expression in E. coli; label from the status in PepcDB or PDB records

With “MCGGRGTRLDTKVEKPLFRIGGVPMVGRVVGALEDSAVERIIAATSPNAPETQSCLDVPCIETPGEGYVADLNAALNDDRLSQPVLTVAADLPLLDGEIVDRVLDEHNGGSLTVLVPASLKRALGVSDDTTFDNGGREVAPTGVNVVSDGPDDAWLTRDRRVAVNVNTLADARVAEQWLLEHHHHHH” as the sequence, how does the “soluble on expression in E. coli” value read?
The value was “not soluble”.

Which “soluble on expression in E. coli” value does the source give for “MCGRFVLKATPEEIADYLDLIGLEDFPARFNIAPTQPILVVMEGEQQERGSNLPNRRAVLVRWGFMPGWVKDPKDFPLLINARSETAIGKASFRAAMRHRRVLIPATGFYEWRRPPKEEGGKAQPYFIRPKNGGIVAFAGLMETWSSADGSEVDTGAILTTAANAAIGRIHDRMPVVIAPEDFSRWLDCKTQEPREVADLMRPVQGDFFEMIPVSDKVNKVANVGADLIDPVPESAPLAKVRPAKDDGQMSLFLEHHHHHH” here?
Its value is “not soluble”.

With “MCGRIAQKSAPEDYVEILWPNARLIFDDVAGPRYNIPPGTRPLTMHRLVDQAEALARLPWGYKPHGSSFFMINAKLETIERHGWPWKLMIGTGRILVPADGWYEWKALDSGPKPAKQPYYIHGDAPLLFAGLSAWRRGAELDEAHGFAIVTNDALGGMVDVHDRRPVALPPELAREWVDPATPVARAKEILRAGLPETAFSWYPVRQEVGSSKYQLPDAVDPLLEHHHHHH” as the sequence, how does the “soluble on expression in E. coli” value read?
The value was “soluble”.

With “MCKLAGPQHSEIGFPISTDNASWRGPNIEAGGKSAYNNVQVGE” as the sequence, how does the “soluble on expression in E. coli” value read?
Its value is “not soluble”.

For “MCLNFREDNVMKKIMVIFGTRPEAIKMAPLVKEIDHNGNFEANIVITAQHRDMLDSVLSIFDIQADHDLNIMQDQQTLAGLTANALAKLDSIINEEQPDMILVHGDTTTTFVGSLAAFYHQIPVGHVEAGLRTHQKYSPFPEELNRVMVSNIAELNFAPTVIAAKNLLFENKDKERIFITGNTVIDALSTTVQNDFVSTIINKHKGKKVVLLTAHRRENIGEPMHQIFKAVRDLADEYKDVVFIYPMHRNPKVRAIAEKYLSGRNRIELIEPLDAIEFHNFTNQSYLVLTDSGGIQEEAPTFGKPVLVLRNHTERPEGVEAGTSRVIGTDYDNIVRNVKQLIEDDEAYQRMSQANNPYGDGQASRRICEAIEYYFGLRTDKPDEFVPLRHK”, which “soluble on expression in E. coli” value is on record?
The value was “not soluble”.

Which “soluble on expression in E. coli” value does the source give for “MCMSVFKRLRDLTMSNVYSLIEKAEDPVKMTDQYLRDMQADVQEAEKSVAAQIALEKKFKILFEEQEALVKKREEQAHMAVQASNLDLARRALEEKQNAEQKMNEYKASYEQNKAAADNLRLKLEEMRKQLTELKNKRETLVARVNAAKAQKNINQAMSGFDSNSAKAGLSRMEEKALQLEAEAEASGEVYKKEKSLDDEFASLNKNSAVDDELARIMKQYEKMAGDPLEHHHHHH” here?
The value was “not soluble”.

For “MCMSWSKVKYFFFDTPEEKEAAQYSYEKEQTDMKKQQDPPEQQDVTFPKAQPKQNVVSIETAKQSSKVVLLEPRTYSEAQGIADHLKGRRAVVINLQRMSTDQAVRIVDFLSGTVYAIGGDIQKIGPKTFMTPENVDIVGAISELFGEEEDTNIKRWLEHHHHHH”, which “soluble on expression in E. coli” value is on record?
Its value is “soluble”.

For “MCNDTATPQLEELVTTVANQLMTVDAATSAEVSQRVLAYLVEQLGVDVSFLRHNDRDRRATRLVAEWPPRLNIPDPDPLRLIYFADADPVFALCEHAKEPLVFRPEPATEDYQRLIEEARGVPVTSAAAVPLVSGEITTGLLGFIKFGDRKWLEHHHHHH”, which “soluble on expression in E. coli” value is on record?
Its value is “not soluble”.

Which “soluble on expression in E. coli” value does the source give for “MCPVENKWLKVGQKGAGPGARSSHAMTVVGNKVYCFGGELKPTIHIDNDLYVFDLETQEWSIAPATGEAPFPCFGVSMVTIGSTIYVYGGRDDKRRYNGLHSYDTETNEWKLLAPVEEGLPGRSYHSMAGDDRKVYVFGGVTAKGRVNTLHAYDVVDQKWVEYPAAGEACKGRGAPGLVVVEGRIWVLFGFDGNELGDIHCFDLASEQWKAVETTGDVPAARSVFPAVSYGKYIVIYGGEEEPHELMHMGAGKMSGEVYQLDTETLVWERIVCGNEEEKPSQRGWCAFTKAVKDGEEGLLVHGGNSPTNERLDDLVFWGFSHLNVN” here?
The value was “soluble”.

With “MCSSETIVKLNVGGSVFETWKSTLTKQDGFFKTLVETNIPVKKDTSDCYFIDRSPKYFETVLNYMRSGVTVLPDSEKELQELKKEAEFYLLEQLVDLCEPINNQIRTYRSSHELLQIIASTKKPVVVINYITHNNDIIYIPEGFRFDEFVKKNSSVVEIYFQPMDNREPLPKDLRRHRGMKYYPEPVWSYRIYNSTHSGCVDLTAMDDLQKKIDSILNGE” as the sequence, how does the “soluble on expression in E. coli” value read?
Its value is “not soluble”.
